Results on one substance are retold here after patent publication US20170082621A1.

In assay [1] the target is HP-NAPE97GY101H (Helicobacter pylori strain 26695) (UniProt P43313). Kind of assay: recombinant HP-NAP-based ELISA, antibody X at 600 ng/ml.
In assay [2] the target is HP-NAPY101H (Helicobacter pylori strain 26695) (UniProt P43313). Described as above.
The target in assay [3] is HP-NAPE97GY101H (Helicobacter pylori strain 26695) (UniProt P43313). Kind of assay: western blot of E. coli lysates, normalised by Ponceau S to wild-type HP-NAP.
Assay [4] has as its target HP-NAPY101H (Helicobacter pylori strain 26695) (UniProt P43313). Described as above.
The target in assay [5] is Helicobacter pylori neutrophil-activating protein (HP-NAP) of H. pylori 26695 (Helicobacter pylori strain 26695) (UniProt P43313). Kind of assay: cell-based or functional assay.

As to “antibody X, commercial IgG/M2 monoclonal antibody (Sigma, F-3165)”, the ELISA signal compared to wild-type HP-NAP in assay [1] was 33%; in assay [2], 60%. Moreover, the western-blot signal intensity compared to wild-type HP-NAP came to 9% in assay [3] and 11% in assay [4]. This substance also gave an inhibition of ROS production upon two hours of HP-NAP stimulation (H2DCF-DA fluorescence) in assay [5] of 93.2%.
